From US20090158456

Columns and labels:
[1] = system: recombinant GST-CcHCT fusion protein (pGTPc103a_HCT)
[2] = system: recombinant GST-CcHQT fusion protein (pGTPc103a_HQT)

Substance: AcTEV protease
- SDS PAGE gel electrophoresis and coomassie staining after AcTEV digestion [1]: generate a smaller polypeptide with the expected molecular weight of the full length proteins from each of the GST-tagged "precursor" proteins
- SDS PAGE gel electrophoresis and coomassie staining after AcTEV digestion [2]: generate a smaller polypeptide with the expected molecular weight of the full length proteins from each of the GST-tagged "precursor" proteins
